# Source: a protein production outcome set (Wang et al. 2014)
# Assay: label from the status in PepcDB records
row,Sequence,protein production
1,MNDTLLNAYSGIKTHQFGIDSLSNNIANVNTLGYRSNDPEFKTLFSSHLDALNAKSVVANDRNYGVTGSGNVLSNKDGEYMPSEGEFHMAYQGKGWFVIGPNKNGEITINKDGFSKKQDNFLTRAGNFARDADGYLVTPEGYYVYGIDLKKIKDGTLNSTARDEDIEKLHGNTLSPLQIPQDLTYQPVLSTKVNISVNLNPKDHLKGVQDFFLNDKGEIIKERFLNQDINALANNDNEPIDAITNRKLNISIQKEDGKKEDFVFTYGDAEKGENQFKTLGDLQKLLKEKTGLDLNLIKSEKDAKSPPLLLEIANPSQTPITFSLSGGIADKLGLKADGMELKKGISRDSVAIKIPYYSTEVDIYDKAGDKYLLQSEYYMTNSNDPTSSPTSKRKNQTWEVKSYIADPKNKTPINDPTWEIVGFDSATHKMKSAPMTLDFKGNKLTYSLDKSENHDSSDLSYQDSKLLEASQDGKPRGIFRDMRIEENGVISLAFSNGVVEPVARIGILAFTNDQGLRKIGGNLYEMQEGTINGENRPLSGNPILGWDEEGKLKFGKIRHKYLETSNVNAGNALTNLILMQRGYSMNARAFGAGDDMIKEAISLKK,failed
2,MNEIHQPLARRVWRSNVDEEMARMAECLKRFPLIAFDTEYPGIIFRTYFDSSSDECYRAMKGNVENTKLIQCGFTLFNAKGEIGGVWEINFSNFGDPSDTRNELSIEFLRRHGLDLQKIRDEGVDMFGYGFFPKLMTVFRSQKHVEFVTFQGAYDFAYFLSILNHGKLPETHGEFATEVVKVFGQVYDTKVMAGFCEGLGEHLGLSKLAQLLQITRVGRAHHAGSDSLMTALVFIKLKHVYEDSRFARGLIYGIGKSNLVAAPAPAPVPEPTLPLMCQQNVASYPVFHNGYVQNYEQPQLVSYDPSGAPWAFCNATGTYVQLTHLPASTFAYPSQTPSATVDYLGPVPNYYNNNACYVVE,failed
3,MNEIILITGAYGMVGQNTALYFKKNKPDVTLLTPKKSELCLLDKDNVQAYLKEYKPTGIIHCAGRVGGIVANMNDLSTYMVENLLMGLYLFSSALDSGVKKAINLASSCAYPKFAPNPLKESDLLNGSLEPTNEGYALAKLSVMKYCEYVSAEKGVFYKTLVPCNLYGEFDKFEEKIAHMIPGLIARMHTAKLKNEKEFAMWGDGTARREYLNAKDLARFISLAYENIASIPSVMNVGSGVDYSIEEYYEKVAQVLDYKGVFVKDLSKPVGMQQKLMDISKQRALKWELEIPLEQGIKEAYEYYLKLLEV,failed
4,MNEIYDREQMIKLLDLAKNTEMELPINLAIGLGLRISEVLGLTWDNIDFEENTITVNKITSRINGSVILKEPKTESSVRKISSPKELMSLLKEYKIKQNKNLLKSSIRNNNNLLFFNKKCEPIAEDVMSKKFKRFLEKNELPHIRFHDLRHSHVTLLINSKVPIKVISERVGHSNISTTLSVYSHVLKEMDKEASDKISESLFNANLEHHHHHH,not failed
5,MNEKKEQALFEYDAKLSISEAIPMGLQHVVAAVVGIVTPGIMIAKVCQLSPSDTTILIQTSLIFSAVATLIQLFPIFGKVGSRLPVMMGASFAYVPILMAIGADFGIAAIFGSQLVGSILVIIVGLFIKKIRVLFPPLVTGTVILSIGLSLFPVAIKYMAGGAGSADFGSARNWLVALLTFAIVFYFNYFAKGFLKLSAILNGMVIGYLISLALGMVSFEPVQNAKIVQVITPFHFGLDFQLVPIFTLVVMFIVDAVQAIGQFTATTVGAMDRDATDEELSGGIMGSGFTNFIGSLFGSIPVATFGQNVGLVTVTKVINKYVLVFASVILLIAGFVPKVAALLTTIPYAVIGGATISVFASISMTGIRMIASQEMTPRNTGVVGTALAFGIGVTLSTGSLAGFPTWVTTIFGNSEVILTTLVAVLLNVILKPKKRVALE,not failed
6,MNELTQSDNYQLLNRELAAPDPWGLDANPFERERHTQMLRLALAQGSISSALEVGCAAGAFTVQLAPHCKRLTVIDVVPQAIERSRRRIRGSPHISWIVSDVQQFSPDERFDLIVVAEVLYYIGGIAEMRGAVRNLVRMLAPDGYLVFGSARDANCRRWGHVAGAETILGMLNETLLEVERLECRGESVNEDCLLACFRNPFSAS,failed
7,MNENDKEYQASLKSLETENIIDRKFYRPIGFYFAKLLSRTRVTPNMVTILSIFVGLGGGLCFVHTPYDLRWAVAGILCMVVANIMDCIDGQLARLTGIKSEIGRILDGIAGDIWFACIYICFIIRLTAEYPDALGSMTTGILIAVGLLSGISHLVQAAVTDYYKTLHLFFISPEKGKEFERSTSIRRRVKAMPHGVNRLFSSLYYYYTLIQERATPRLQRLLDQLEADYPQNTIPETLRQHLRKDSRRIMNIVDFLTFNGRTIPLFLIVLSGHIWLYFVFEILILNTVLVLGIRRHEAMCRHHLKERR,failed
8,MNEQIPHDKSLDNSLTLLKEGYLFIKNRTERYNSDLFQARLLGKNFICMTGAEAAKVFYDTDRFQRQNALPKRVQKSLFGVNAIQGMDGSAHIHRKMLFLSLMTPPHQKRLAELMTEEWKAAVTRWEKADEVVLFEEAKEILCRVACYWAGVPLKETEVKERADDFIDMVDAFGAVGPRHWKGRRARPRAEEWIEVMIEDARAGLLKTTSGTALHEMAFHTQEDGSQLDSRMAAIELINVLRPIVAISYFLVFSALALHEHPKYKEWLRSGNSREREMFVQEVRRYYPFGPFLGALVKKDFVWNNCEFKKGTSVLLDLYGTNHDPRLWDHPDEFRPERFAEREENLFDMIPQGGGHAEKGHRCPGEGITIEVMKASLDFLVHQIEYDVPEQSLHYSLARMPSLPESGFVMSGIRRKS,not failed
9,MNEQPAACRIKVEALGAGFAPAAEQWAERLGLALQVDEAEFALQVGEQGLQLQQLGPDAPGPVRVDFVEGGAAHRRLYGGGSGQMIAKAVGVAQGVRPRVLDATAGLGKDGFVLATLGCEMSLIERQPLIGALLEDGLARAAQDAEVGPIVARMHLLKGNSIELMRNWQGEPPQVIYLDPMFPHREKSALVKKEMRLFRPLVGDDNDAPALLAAALALASHRVVVKRPRKAPCIEGPKPSHGLEGKSSRYDIYPKKALKALEHHHHHH,failed
10,MNERPATIEELICAAEARLRADPTQVKTVIEDLAHLEAQGYPAGPATVLIFDGNARVMSGDFAGARPVLEKGLALSTELEEPTLQVRALTGLAVLHVGTGAYGQALEYHMQSMQLARTLENGGLLSRSLIYVGSLYAALRNFEQAQAYHREAVEHAASAGRSTFMARLALATDEAQLGHLEEALQQRRELLVEARQTASRAEEAFVLADLAANLLQLDQRAEARQLASEALKRAEALGLQLEKGQALIILASLDIREGQFESAHQALHEVLEIGQRLASIQLLIPVHEELSRLFEQQGDFAGALRHTRVHYELKSSELTRLAERRSQVLEAELKVELLRQQAEEKERQNLALVAINEHLRETQKRLQYAATHDALTGLLVRTALEETVEDDLLLSPERRRALFMIDVDHFKQINDALGHHVGDRFLQELARRLRGALRPTDIVARQGGDEFTIYLRELDSPEEAVALGQQLLRDIAAPVQVEGHLLNVTVSIGIAVYPDDGRDVMTLEKHADLALYRAKEQRHQVCRFQKPAD,failed
11,MNESPKEGAGGAPDYDVWEAEVKSSRGLPLVWLIPLVALGIGIWLAYRTLSEEGPTITLLFKEAPGLEAGKSKIKFKDVEIGTVESVVLNEDLTGVVVTAKMEKHVATHLGENTAFWVVKPELGLGGVSGLDTLMAGNYIAVEFGGGKVVRRFVGLERPPRIKADTPGRSFFLSADNAGPLKYGTPVYFRDIEVGQVVNVGLAEDNRSVQVEIFIDAPYHRLVHNSTRFWQVSGIDLSLSAQGVNLKVGSIMSLLQGGITFETPTLNDPKVQSSEPNTRFRLHKDFASIAEGTYTLRQPYLLFFDDSVRGLNVGAPVELKGIRVGTVTELKLALDFGAHKIRIPVVIEIDPERLIPYGAEEIIERAKKEYKAAMEAGRRPFMEKLVERGLRARLRTGNLLTGQLYVDLDFYPESPPKSLDYSGQYPELPTLPSVADELQRNVTEIIANLKKIPLDKIGQELLGTVQGSNRLLNSPELKGAVGSLNLALKDLRHLAQTADREMVTLTSAAEKSLSSTARVLEQLEPGSAMAVDISNALEELAASARSIRALTDYLERHPEALLHGKGGSGGKP,failed
12,MNESVDTDEATTPLVSAIIPTYGRNERLSSAIQSVLEQTYDNIELFVVDDASPTPVRETLDSFDPTVENSFRILRHDENQGANAARNTGIRASDGRYVAFLDDDDQWDETKITKQVQAFQESDSETGVVYTGVRKDGPEGTTVSTPVASGDVMKDLLTGTNFGQFSSVMVDTTVIETAGLPDERLPAWQDREWFFRLAQHTHFRPVRETLTYRQTGLPGSITKKYEQKRDVAYPMLISKHDWVAAEYGIYYERMFKATMRRSLARSAVRADRYKEARKYFLLSALANPLYWPVYPHLFASLGGKWSYESIASLRQQVTNGPASGTLEHHHHHH,failed
13,MNEYDEECLLTFLKKQSQLFDEPVAETMEEAEAFLEDCMAVVVDSLDEVREYFEESGADVENMLEHHHHHH,not failed
14,MNFDLYMNGVVEQARNEIESAGYEQLTTAEDVDKVLKQDGTTLVMINSVCGCAGGIARPAASHALHYDVLPDRLVTVFAGQDKEATQRAREYFEGYAPSSPSFALVKDGKITEMIERHQIEGHDVMNVINQLQTLFNKYC,not failed
15,MNFDTIIIGGGMAGLSCALRCLEAGLKTAVIASGQSALHFSSGSIDVLAKTPSGKHVINPMDSLETFSKEYPSHPYAALGKETVERAINWYKTTLSAIGVPLTSQKDGLNHYRLTPLGTMKSTWLSQPFVHQFPMDLEKNKTQKMVLITIDGFRDFQPKLAQDNLKQITQLSDLEIATASISLSAFNDIQRNHCELRSIDISRLLSKRANRQELAYALQQHANPGDLVVLPSIFGNGTGLSYLREIEQLTKLTLCEVPTMPPSLLGIRLEESMKHAFIELGGTMLNGDHVVQGEFSYVDKSDPEHSHYRLNRLFTKNHGDFPLQAKQFVLATGSFFSQGLKANVDSMIEPIFGLDIAQSDKRTDWYSHDFFSTQSHPFLSMGIKTTANFQAIKSGHVIDNLYCAGAILSGYNPILEGSGSGVAISSGFHAAESIIEQLQCSDSLQNNNTKAEVAL,failed
16,MNFIRIVKFDFKNIIRNPMLLFFNTIFPLILIGSIGFVMKNGYGSFNVTSYDYYGVTMMIFTAFIICITASNTFMEKSVKKGNTRIVYAPVSKAEIYLSKIISTYILGSIFYSIIIVLGKYVLNINYGTRSTIYIIILINMLTLFGCCLGVLFCCIFKSEEGANSVLQIVIMLFIFFGGVFFPVYSLGKIVESISNLSPLKWITECIFRIIYDNDFSIYLPTIGVMLVSSIICIVICQIIFKPEEYV,failed
17,MNFKESRAIYLQIADRICDDILLGQYEEEGRIPSVREYASIVEVNANTVMRSYEYLQSQEVIYNKRGIGFFVASGAKMLIHSLRKEQFLKEEVGSFFRQLYTLGISIKEIEKMYYEFIQRQNQ,not failed
18,MNFLNENEKKITLIPPPEFVQYVGGHFEEVGKEFMQYFIEIGNLKSNETVLDVGCGIGRMAVPLMNYLSDDGTYYGFDLFNKGITWCKNNISTRRNNFHFEHVDIYNQFYNPDGKEDASQYKFPYEDESFDFIFLTSVFTHLLPKELEHYVREIARVLKKDGRCFITFFLINPESSYYLNAGLSPLGFYHQIDNCYVLNKDIPNFAVAYPEEDIRTLLNKYGLEMQTPPHYGSWCGRTEHTSYQDIILAQKISER,failed
19,MNFWEVVLIVVNFSLLSWILLIGRETKKWSKLATLIAVVMVTVQLLAEGFRWQMIPAYVSPVILILCYLLAGRKKGFRSSGIFIVKTSLLCIYLSVAVALPLLMPVFSFEEPTGPHRVGTKLYHWVDHQRNEPYSKNPNDRRELMVQIWYPAAEKSKGDPEPYIRNINELSKGLEKTLSIPAFAFSHMELVKSHSFMDLQLSDSENHYPILLFSHGFNGFRNQNTFQVEELASQGYIVLSIDHTFDAAATVFPGGRTAYVQPINLTDEGDSHIKLWEEDVSFVLNQIEKLNENDETGFFTGRLDTSRIGMFGHSYGGATAAQILAKDSRVKAAINMDGTLYGEILPESGIGKPFLLMNAEEPDEADPFEVRERYGRGLAGGGMSMVIPHTDHTSFTDLHLFSPLLQSPGENPKEVHRIINEFSLAFFDQYVKQKDDGSTLKRLITQYPEVNFKINR,failed
